Measurements reported in patent US20100015058A1 (STANFORD UNIVERSITY, published 2010).
Each block holds one binder with its values, some of them ahead of it.

Tests used:
[1] = molecular target: T1, gastrin-releasing peptide receptor (GRPR) (human, UniProt P30550 1-384); test: displacement of ^125I-[Tyr^4]BBN from PC-3 cells; determined with FB-PEG3-RGD-BBN
T1 construct: whole, on cells; also called GRP receptor

[2] = molecular target: T1, gastrin-releasing peptide receptor …; test: displacement of ^125I-[Tyr^4]BBN from PC-3 cells
[3] = molecular target: T1, gastrin-releasing peptide receptor …; test: competitive binding with 125I-[Tyr4]BBN on PC-3 cells; determined with NOTA-RGD-BBN
[4] = molecular target: T1, gastrin-releasing peptide receptor …; test: displacement of ^125I-[Tyr^4]BBN from 10^5 PC-3 cells
Method: (§1) The best-fit 50% inhibitory concentration (IC₅₀) values were calculated by fitting the data with nonlinear regression using Graph-Pad Prism (GraphPad Software, Inc.). Experiments were performed with triplicate samples.

integrin αvβ3 [5] = molecular target: T2, integrin αvβ3 (human, UniProt P06756 31-1048; P05106 27-788); test: competitive displacement of ^125I-echistatin on U87MG cells
T2 construct: whole, on cells; Endogenous receptor on U87MG human glioblastoma cells in the IC50 assays; also called integrin alpha v beta 3; human integrin αvβ3
Method: as §1

integrin αvβ3 [6] = molecular target: T2, integrin αvβ3; test: competitive binding with 125I-c(RGDyK) on U87MG cells
[7] = molecular target: T1, gastrin-releasing peptide receptor …; test: competitive binding with 125I-[Tyr4]BBN on PC-3 cells
integrin αvβ3 [8] = molecular target: T2, integrin αvβ3; test: competitive binding with ^125I-c(RGDyK) on U87MG cells
Method: The best-fit 50% inhibitory concentration (IC₅₀) values were calculated by fitting the data with nonlinear regression using GraphPad Prism (GraphPad Software). Experiments were performed twice with triplicate samples.

T1 sequence (P30550 whole entry): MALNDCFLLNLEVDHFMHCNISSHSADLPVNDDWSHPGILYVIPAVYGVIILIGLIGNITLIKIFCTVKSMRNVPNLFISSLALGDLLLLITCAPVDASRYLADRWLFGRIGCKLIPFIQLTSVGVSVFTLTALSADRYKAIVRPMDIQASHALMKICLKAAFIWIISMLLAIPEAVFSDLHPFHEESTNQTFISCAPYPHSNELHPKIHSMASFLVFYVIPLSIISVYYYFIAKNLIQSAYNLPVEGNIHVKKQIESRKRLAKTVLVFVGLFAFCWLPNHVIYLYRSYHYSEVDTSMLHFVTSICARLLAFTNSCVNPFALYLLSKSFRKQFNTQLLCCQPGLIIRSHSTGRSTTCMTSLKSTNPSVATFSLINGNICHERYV
T2 sequence (P06756 31-1048, chain 1 of 2): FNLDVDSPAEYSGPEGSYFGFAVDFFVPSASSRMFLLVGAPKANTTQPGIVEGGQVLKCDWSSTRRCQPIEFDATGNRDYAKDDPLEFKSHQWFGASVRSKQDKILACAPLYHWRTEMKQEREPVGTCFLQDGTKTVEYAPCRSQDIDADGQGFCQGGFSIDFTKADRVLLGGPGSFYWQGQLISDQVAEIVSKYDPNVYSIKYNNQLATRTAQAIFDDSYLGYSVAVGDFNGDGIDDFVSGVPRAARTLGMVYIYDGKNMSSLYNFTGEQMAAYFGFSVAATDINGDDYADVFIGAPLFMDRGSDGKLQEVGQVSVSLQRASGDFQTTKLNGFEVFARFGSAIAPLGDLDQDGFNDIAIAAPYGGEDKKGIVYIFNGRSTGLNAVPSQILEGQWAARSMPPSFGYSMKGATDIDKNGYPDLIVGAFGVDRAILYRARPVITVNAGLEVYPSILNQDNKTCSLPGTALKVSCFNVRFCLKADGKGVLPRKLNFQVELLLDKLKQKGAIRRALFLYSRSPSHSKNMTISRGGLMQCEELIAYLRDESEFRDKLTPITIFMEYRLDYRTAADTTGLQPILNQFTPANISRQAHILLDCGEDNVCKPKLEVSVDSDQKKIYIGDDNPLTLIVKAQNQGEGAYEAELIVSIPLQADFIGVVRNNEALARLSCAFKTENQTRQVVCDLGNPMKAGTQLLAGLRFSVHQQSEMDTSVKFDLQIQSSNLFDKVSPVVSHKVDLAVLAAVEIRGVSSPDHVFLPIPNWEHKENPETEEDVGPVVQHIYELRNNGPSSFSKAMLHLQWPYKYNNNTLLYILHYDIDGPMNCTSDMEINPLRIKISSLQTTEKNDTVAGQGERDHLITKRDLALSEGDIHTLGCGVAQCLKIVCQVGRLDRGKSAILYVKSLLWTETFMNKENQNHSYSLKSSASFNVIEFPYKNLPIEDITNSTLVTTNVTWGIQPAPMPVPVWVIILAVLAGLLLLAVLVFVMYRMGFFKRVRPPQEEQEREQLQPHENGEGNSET
T2 sequence (P05106 27-788, chain 2 of 2): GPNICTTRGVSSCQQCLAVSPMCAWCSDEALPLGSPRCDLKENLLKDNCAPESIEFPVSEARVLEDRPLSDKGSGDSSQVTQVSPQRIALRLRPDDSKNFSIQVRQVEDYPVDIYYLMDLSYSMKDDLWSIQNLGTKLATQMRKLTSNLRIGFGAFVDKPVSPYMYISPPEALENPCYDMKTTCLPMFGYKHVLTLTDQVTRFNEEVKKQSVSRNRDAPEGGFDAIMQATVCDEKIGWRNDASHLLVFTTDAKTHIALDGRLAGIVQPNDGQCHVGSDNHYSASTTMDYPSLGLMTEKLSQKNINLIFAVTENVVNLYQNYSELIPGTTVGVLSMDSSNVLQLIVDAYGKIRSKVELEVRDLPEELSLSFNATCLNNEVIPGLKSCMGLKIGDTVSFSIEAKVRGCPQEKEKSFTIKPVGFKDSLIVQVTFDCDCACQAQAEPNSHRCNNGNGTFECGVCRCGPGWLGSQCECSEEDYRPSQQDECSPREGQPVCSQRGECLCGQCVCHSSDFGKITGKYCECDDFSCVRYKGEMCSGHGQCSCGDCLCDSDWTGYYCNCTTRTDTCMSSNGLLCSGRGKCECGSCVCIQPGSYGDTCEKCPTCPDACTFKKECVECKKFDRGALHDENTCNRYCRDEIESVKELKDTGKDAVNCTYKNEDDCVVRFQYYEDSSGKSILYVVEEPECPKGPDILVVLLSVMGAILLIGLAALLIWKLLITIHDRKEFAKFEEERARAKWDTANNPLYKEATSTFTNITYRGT

B1: FB-PEG3-Glu-RGD-BBN (peptide)
peptide 1: RGDYK
peptide 2: EQWAVGHLM
modifications: 4-fluorobenzoyl (FB) on the amino group of the PEG3 spacer (11-amino-3,6,9-trioxaundecanoic acid), PEG3 on the Glu amino group; Glu γ-carboxylate joined to Aca; Aca between Glu and Gln; C-terminal amide (Met-NH2); cyclic (cyclo); D-Tyr at position 4; Lys side chain ε-amine joined to the α-carboxylate of Glu
notes: also called FB-PEG3-RGD-BBN; ^18F-FB-PEG3-Glu-RGD-BBN
- IC50 [1]: 73.3 nM

B2: NOTA-RGD-BBN (VII) (peptide)
peptide 1: RGDYK
peptide 2: EQWAVGHLM
modifications: NOTA (from p-SCN-Bn-NOTA, SCN-amine reaction) on the amine of RGD-BBN; Aca between Glu and Gln; C-terminal amide (Met-NH2); cyclic (cyclo); D-Tyr at position 4; Lys side chain joined to the Glu …
notes: also called NOTA-RGD-bombesin; ^64Cu-NOTA-RGD-BBN
- IC50 [2]: 55.9 nM
- IC50 [3]: 92.8 nM

B3: NH2-Glu-BBN(7-14)-c(RGDyK) (BBN-RGD) (peptide)
peptide 1: RGDYK
peptide 2: EQWAVGHLM
modifications: free amino group on Glu; Aca between Glu and Gln; C-terminal amide (Met-NH2); cyclic (cyclo); D-Tyr at position 4; Lys joined to one carboxylate of the Glu linker
notes: also called heterodimer BBN-RGD; BBN-RGD heterodimeric construct
- IC50 [4]: 35.7 nM
- IC50 (integrin αvβ3 [5]): 428 nM

B4: DOTA-RGD-BBN (VIII) (peptide)
peptide 1: RGDYK
peptide 2: EQWAVGHLM
modifications: not fully specified; DOTA (from DOTA-OSSu) on the amine of RGD-bombesin; Aca between Glu and Gln; C-terminal amide (Met-NH2); cyclic (cyclo); D-Tyr at position 4; Lys side chain joined to the Glu linker
notes: also called DOTA-RGD-bombesin; ^64Cu-DOTA-RGD-BBN
- IC50 (integrin αvβ3 [6]): 21.6 nM
- IC50 [7]: 85.8 nM

B7: FB-NH-Glu-BBN(7-14)-c(RGDyK) (FB-BBN-RGD) (peptide)
peptide 1: RGDYK
peptide 2: EQWAVGHLM
modifications: 4-fluorobenzoyl (FB) on the Glu amino group; Aca between Glu and Gln; C-terminal amide (Met-NH2); cyclic (cyclo); D-Tyr at position 4; Lys joined to one carboxylate of the Glu linker
notes: non-radioactive FB form used in the IC50 assays; also called ^18F-FB-BBN-RGD
- IC50 [4]: 32 nM
- IC50 (integrin αvβ3 [5]): 282 nM

Other lines, results leading:

- binding result (integrin αvβ3 [8]): no binding
Binder: Aca-QWAVGHLM-NH2 (also called BBN monomer; cold BBN) [Aca-BBN(7-14), Aca-Gln-Trp-Ala-Val-Gly-His-Leu-Met-NH2]

- IC50 [2]: 85.5 nM
B5: PEG3-Glu-RGD-BBN (peptide)
peptide 1: RGDYK
peptide 2: EQWAVGHLM
modifications: not fully specified; PEG3 (11-amino-3,6,9-trioxaundecanoic acid) on the Glu amino group; Glu γ-carboxylate joined to Aca; Aca between Glu and Gln; C-terminal amide (Met-NH2); cyclic (cyclo); D-Tyr at position 4; Lys side chain ε-amine joined to the α-carboxylate of Glu
notes: also called PEG3-RGD-BBN

- IC50 [2]: 67.9 nM
- IC50 (integrin αvβ3 [8]): 17.9 nM
B6: RGD-BBN, cyclo(Arg-Gly-Asp-D-Tyr-Lys)-Glu-(Aca-Gln-Trp-Ala-Val-Gly-His-Leu-Met-NH2) (peptide)
peptide 1: RGDYK
peptide 2: EQWAVGHLM
modifications: free amino group on Glu; Glu side-chain carboxylate joined to Aca; Aca between Glu and Gln; C-terminal amide (Met-NH2); cyclic (cyclo); D-Tyr at position 4; Lys side chain ε-amine joined to the α-carboxylate of Glu
notes: also called Glu-RGD-BBN; RGD-bombesin
